Results: patent US20260035484A1 (LONGBIO PHARMA SUZHOU, published 2026)

Tests used:
[1] = target: T1, biotin-labelled human IgE-Fc (human, UniProt P01854 104-427, biotin-labelled); assay: blocking ELISA, inhibition ratio: FcεRIα-Fc coated, biotin-labelled human IgE-Fc (100 ng/mL) premixed with the antibody, streptavidin-HRP; blocked ligand FcεRIα-Fc
T1 construct: also called recombinant human IgE-Fc protein; Fc region (CH2-4) protein of human IgE
Protocol: The method specifically included diluting the recombinantly expressed human FcεRIα-Fc protein (with its amino acid sequence as set forth in SEQ ID NO: 51) with PBS to a final concentration of […], coating the ELISA plates (purchased from Corning, Product code: 42592) at 100 μL per well, and keeping at 4° C. overnight. The next day, the coating solution was discarded. The wells were blocked with 2.5% skimmed milk dissolved in PBS for 1 hour and washed with PBS containing 0.05% Tween-20. […] After discarding the supernatant, the wells were washed with PBS containing 0.05% Tween-20 and diluted with HRP-labelled streptavidin (purchased from Sangon Biotech, Product code: D111054-0001) at 1:1000 for detection. The inhibition ratio of different antibodies at different concentrations was calculated following the formula below: Inhibition ratio at antibody concentration of X (%)=(OD₄₅₀ readout at antibody concentration of 0-OD₄₅₀ readout at antibody concentration of X)/OD₄₅₀ readout at antibody concentration of 0×100.

[2] = target: T1, biotin-labelled human IgE-Fc; assay: blocking ELISA: FcεRIα-Fc coated, biotin-labelled human IgE-Fc (1 µg/mL) premixed with the antibody, streptavidin-HRP; blocked ligand FcεRIα-Fc
Protocol: The next day, the coating solution was discarded. The wells were blocked with 2.5% skimmed milk dissolved in PBS for 1 hour and washed with PBS containing 0.05% Tween-20. […] After discarding the supernatant, the wells were washed with PBS containing 0.05% Tween-20 and diluted with HRP-labelled streptavidin (purchased from Sangon Biotech, Product code: D111054-0001) at 1:1000 for detection.

[3] = target: T1, biotin-labelled human IgE-Fc; assay: blocking ELISA: FcεRIα-Fc coated, biotin-labelled human IgE-Fc (100 ng/mL) premixed with the antibody, streptavidin-HRP; blocked ligand FcεRIα-Fc
Protocol: (§1) The method specifically included diluting the recombinantly expressed human FcεRIα-Fc protein (with its amino acid sequence as set forth in SEQ ID NO: 51) with PBS to a final concentration of 1 μg/mL, coating the ELISA plates (purchased from Corning, Product code: 42592) at 100 μL per well, and keeping at 4° C. overnight. The next day, the coating solution was discarded. The wells were blocked with 2.5% skimmed milk dissolved in PBS for 1 hour and washed with PBS containing 0.05% Tween-20. […] After discarding the supernatant, the wells were washed with PBS containing 0.05% Tween-20 and detected by using HRP-labelled streptavidin (purchased from Sangon Biotech, Product code: D111054-0001).

[4] = target: T1, biotin-labelled human IgE-Fc; assay: blocking ELISA: inhibition of biotin-labelled human IgE-Fc binding to coated FcεRIα-Fc
Protocol: as §1

[5] = target: T2, human IgE (abcam, Product code ab65866) (human, UniProt P01854-1 1-428); assay: MSD-SET, solution equilibrium titration
T2 construct: also called antigen human IgE
T2 sequence (P01854 other isoform, or with tags, fused parts or gaps): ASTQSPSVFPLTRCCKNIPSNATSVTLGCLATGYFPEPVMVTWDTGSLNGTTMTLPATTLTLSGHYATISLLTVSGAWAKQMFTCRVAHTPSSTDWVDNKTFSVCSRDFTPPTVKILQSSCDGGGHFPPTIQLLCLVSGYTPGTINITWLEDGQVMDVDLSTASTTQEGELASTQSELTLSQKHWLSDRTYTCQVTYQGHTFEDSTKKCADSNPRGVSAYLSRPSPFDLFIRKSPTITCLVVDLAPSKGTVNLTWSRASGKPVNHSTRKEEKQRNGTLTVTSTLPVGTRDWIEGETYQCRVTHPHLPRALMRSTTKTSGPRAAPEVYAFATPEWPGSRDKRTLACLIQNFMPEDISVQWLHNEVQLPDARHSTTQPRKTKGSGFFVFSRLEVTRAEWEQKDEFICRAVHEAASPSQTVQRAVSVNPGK
Protocol: The solution equilibrium titration (SET) was performed in PBS+0.1% of IgG-free BSAbuffer (PBSF), where the antigen human IgE (purchased from: abcam, Product code: ab65866) was kept constant at 10-100 pM and incubated with 3-fold serial dilutions of humanized antibodies starting from 0.1-100 nM. […] 20 nM of antibodies diluted in PBS were coated onto standard binding MSD-ECL plates (purchased from MSD, Product code: L15XA-3) at 4° C. overnight. The MSD-ECL plates were blocked with 1% of Casein for 30 min while shaking at 700 rpm, and then washed with washing buffer (PBS+0.05% Tween 20) three times. The samples incubated with 2-fold serial dilutions of antigen human IgE and humanized antibodies were added into the MSD-ECL plates, incubated for 150 s while shaking at 700 rpm, and then washed once. […] 1× reading buffer T (purchased from MSD, Product code: R92TC-1) was added to read on an MSD Sector Imager instrument (Model: MESO QuickPlex SQ 120). In a Prism-GraphPad6 software, the percentage of free antigens was plotted as a function of titrated antibodies and fitted into a quadratic equation to extract the KD values.

T1 sequence (P01854 other isoform, or with tags, fused parts or gaps limits assumed): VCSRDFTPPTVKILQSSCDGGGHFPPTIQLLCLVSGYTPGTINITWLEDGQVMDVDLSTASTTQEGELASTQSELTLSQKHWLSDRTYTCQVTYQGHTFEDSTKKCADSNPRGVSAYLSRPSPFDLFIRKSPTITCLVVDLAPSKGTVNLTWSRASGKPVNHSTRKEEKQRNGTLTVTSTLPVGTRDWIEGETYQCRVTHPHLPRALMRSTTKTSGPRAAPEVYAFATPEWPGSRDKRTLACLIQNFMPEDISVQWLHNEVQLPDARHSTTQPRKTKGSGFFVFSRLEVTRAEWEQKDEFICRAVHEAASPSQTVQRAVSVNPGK

IC50 (read off the curve) [1]	IC50 (read off the curve) [2]	IC50 (read off the curve) [3]	IC50 [4]	Kd [5]	Binder
~0.2 mg/L	–	–	–	–	chimeric antibody SE2 (mouse SE2 variable regions, human IgG1/kappa constant regions) (antibody, V domains shown, also called chimeric recombinant monoclonal antibody) VH: DVQLLESGPGLVKPSQSLSLTCTVTGYSITSDYAWNWIRQFPGNKLEWMGYISYSGSTRYNPSLKSRISISRDTSKNQFFLQLNSVTSEDTATYFCVYGSSQRFFDYWGQGTTLTVSS VL: DILMTQSHKFMSTSIGDRVSITCKASQDVSIDVAWYHQKPGQSPKLLIYSASFRYAGVPDRFTGSGSGTDFTLTISSVQAEDLAVYYCQQHYSLFTFGSGTKLEIKR
~0.2 mg/L	~0.3 mg/L	–	–	–	mouse-derived monoclonal antibody SE2 (antibody, V domains shown, the cloning primer was homologous to the mouse IgG1 heavy chain constant region; also called SE2 mouse hybridoma antibody; mouse-derived parent antibody of SE2) VH: DVQLLESGPGLVKPSQSLSLTCTVTGYSITSDYAWNWIRQFPGNKLEWMGYISYSGSTRYNPSLKSRISISRDTSKNQFFLQLNSVTSEDTATYFCVYGSSQRFFDYWGQGTTLTVSS VL: DILMTQSHKFMSTSIGDRVSITCKASQDVSIDVAWYHQKPGQSPKLLIYSASFRYAGVPDRFTGSGSGTDFTLTISSVQAEDLAVYYCQQHYSLFTFGSGTKLEIK
~0.08 mg/L	~0.2 mg/L	~0.07 mg/L	–	–	mouse-derived monoclonal antibody SE5 (antibody, V domains shown, the cloning primer was homologous to the mouse IgG1 heavy chain constant region; also called SE5 mouse hybridoma antibody; mouse-derived parent antibody of SE5) VH: DVQLLESGPGLVKPSQSLSLTCTVTGYSITSDYAWNWIRQFPGNKLEWLGYINYSGTTRYNPSLKSRISISRDTSKNQFFLQLNSVTSEDTATYFCVYGSSQRFFDYWGQGTTLTVSS VL: DIVMTQSHKFMSTSVGDRVSITCKASQDVSIDVAWYQQKPGQSPKLLIYSASWRYAGVPDRFTGSRSGTDYTLTISSVQAEDLAVYYCQQHYNLFTFGSGTKLEIQ
~0.08 mg/L	–	–	–	–	chimeric antibody SE5 (mouse SE5 variable regions, human IgG1/kappa constant regions) (antibody, V domains shown, also called chimeric recombinant monoclonal antibody) VH: DVQLLESGPGLVKPSQSLSLTCTVTGYSITSDYAWNWIRQFPGNKLEWLGYINYSGTTRYNPSLKSRISISRDTSKNQFFLQLNSVTSEDTATYFCVYGSSQRFFDYWGQGTTLTVSS VL: DIVMTQSHKFMSTSVGDRVSITCKASQDVSIDVAWYQQKPGQSPKLLIYSASWRYAGVPDRFTGSRSGTDYTLTISSVQAEDLAVYYCQQHYNLFTFGSGTKLEIQR
–	–	–	~0.417 mg/L	0.0109 nM	Humanized antibody SE2 (antibody, human IgG1, kappa, V domains shown, also called SE2 humanized antibody; humanized SE2) VH: QVQLQESGPGLVKPSQTLSLTCTVSGYSITSDYAWNWIRQPPGNGLEWMGYISYSGSTRYNPSLKSRITISRDTSKNQFSLKLSSVTAADTAVYFCVYGSSQRFFDYWGQGTLVTVSS VL: DILMTQSPDSLAVSLGERATINCKASQDVSIDVAWYQQKPGQPPKLLIYSASFRYAGVPDRFSGSGSGTDFTLTISSLQAEDVAVYYCQQHYSLFTFGSGTKLEIKR
–	–	~0.06 mg/L	~0.266 nM	0.01 nM	Humanized antibody SE5 (antibody, human IgG1, kappa, V domains shown, also called SE5 humanized antibody; humanized SE5) VH: QVQLQESGPGLVKPSQTLSLTCTVSGYSITSDYAWNWIRQPPGNGLEWLGYINYSGTTRYNPSLKSRITISRDTSKNQFSLKLSSVTAADTAVYFCVYGSSQRFFDYWGQGTLVTVSS VL: DIVMTQSPDSLAVSLGERATINCKASQDVSIDVAWYQQKPGQPPKLLIYSASWRYAGVPDRFSGSRSGTDYTLTISSLQAEDVAVYYCQQHYNLFTFGSGTKLEIKR
